Results taken from article PMC9458455 (Nucleic Acids Research, 2022).

What was measured:
[1] = molecular target: T1, translation elongation factor eEF1Bβ, full-length (human), P29692; assay: AUC; conditions: remark: other sources report otherwise
T1 chain: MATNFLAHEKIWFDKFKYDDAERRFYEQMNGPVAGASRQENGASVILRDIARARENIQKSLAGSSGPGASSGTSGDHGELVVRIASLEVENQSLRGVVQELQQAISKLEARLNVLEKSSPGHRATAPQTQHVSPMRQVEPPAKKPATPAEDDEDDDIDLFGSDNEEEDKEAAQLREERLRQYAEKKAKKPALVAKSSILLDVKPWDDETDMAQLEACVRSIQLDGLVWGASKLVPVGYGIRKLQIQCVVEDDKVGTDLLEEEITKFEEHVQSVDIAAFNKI

[2] = molecular target: T1, translation elongation factor eEF1Bβ, …; assay: AUC; conditions: remark: other sources report otherwise
[3] = molecular target: T1, translation elongation factor eEF1Bβ, …; assay: AUC; conditions: remark: other sources report otherwise
[4] = molecular target: eEF1B(αβγ)3 complex, reconstituted from full-length eEF1Bα, eEF1Bβ and eEF1Bγ (human, UniProt P24534 1-225; P29692 1-281; P26641 1-437); assay: native gel or EMSA
Chain of eEF1B(αβγ)3 complex, reconstituted from full-length eEF1Bα, eEF1Bβ and eEF1Bγ (P24534 whole entry, chain 1 of 2): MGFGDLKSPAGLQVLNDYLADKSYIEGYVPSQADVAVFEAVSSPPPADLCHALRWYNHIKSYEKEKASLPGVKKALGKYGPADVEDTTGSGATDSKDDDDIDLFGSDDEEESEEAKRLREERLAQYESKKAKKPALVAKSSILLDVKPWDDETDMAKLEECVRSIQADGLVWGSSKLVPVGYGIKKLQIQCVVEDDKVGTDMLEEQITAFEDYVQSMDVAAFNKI
Chain of eEF1B(αβγ)3 complex, reconstituted from full-length eEF1Bα, eEF1Bβ and eEF1Bγ (P26641 whole entry, chain 3 of 2): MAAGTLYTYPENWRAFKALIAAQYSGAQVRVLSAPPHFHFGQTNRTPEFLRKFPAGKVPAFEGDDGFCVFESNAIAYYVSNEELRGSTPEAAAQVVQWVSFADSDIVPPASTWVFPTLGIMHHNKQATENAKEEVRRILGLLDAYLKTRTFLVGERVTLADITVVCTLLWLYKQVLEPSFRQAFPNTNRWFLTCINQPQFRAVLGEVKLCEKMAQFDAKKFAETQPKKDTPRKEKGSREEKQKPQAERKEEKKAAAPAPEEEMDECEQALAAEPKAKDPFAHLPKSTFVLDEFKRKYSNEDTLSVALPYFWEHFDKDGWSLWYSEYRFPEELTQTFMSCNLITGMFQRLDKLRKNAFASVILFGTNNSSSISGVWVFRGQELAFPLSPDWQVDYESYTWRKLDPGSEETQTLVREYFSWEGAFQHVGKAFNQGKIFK

B1: translation elongation factor eEF1Bβ, full-length, P29692 1-281 (natural protein)
chain: T1 chain
- stoichiometry N [1]: 3
- stoichiometry N [2]: 3
- stoichiometry N [3]: 3

B2: translation elongation factor eEF1A2 (natural protein, UniProt Q05639 1-463, looked up)
chain: MGKEKTHINIVVIGHVDSGKSTTTGHLIYKCGGIDKRTIEKFEKEAAEMGKGSFKYAWVLDKLKAERERGITIDISLWKFETTKYYITIIDAPGHRDFIKNMITGTSQADCAVLIVAAGVGEFEAGISKNGQTREHALLAYTLGVKQLIVGVNKMDSTEPAYSEKRYDEIVKEVSAYIKKIGYNPATVPFVPISGWHGDNMLEPSPNMPWFKGWKVERKEGNASGVSLLEALDTILPPTRPTDKPLRLPLQDVYKIGGIGTVPVGRVETGILRPGMVVTFAPVNITTEVKSVEMHHEALSEALPGDNVGFNVKNVSVKDIRRGNVCGDSKSDPPQEAAQFTSQVIILNHPGQISAGYSPVIDCHTAHIACKFAELKEKIDRRSGKKLEDNPKSLKSGDAAIVEMVPGKPMCVESFSQYPPLGRFAVRDMRQTVAVGVIKNVEKKSGGAGKVTKSAQKAQKAGK
- stoichiometry N [4]: 6
